Read-outs that look alike come from different tables or passages of the source.
Tests used:
[1] = biological target: R358E/K361E-CCaCalpL (Candidatus Cloacimonas acidaminovorans strain Evry)
[2] = biological target: T1, CalpL (CCaCalpL, SAVED-Lon protease) (Candidatus Cloacimonas acidaminovorans, UniProt B0VHB4 1-506); experiment: cryo-EM structure
T1 sequence: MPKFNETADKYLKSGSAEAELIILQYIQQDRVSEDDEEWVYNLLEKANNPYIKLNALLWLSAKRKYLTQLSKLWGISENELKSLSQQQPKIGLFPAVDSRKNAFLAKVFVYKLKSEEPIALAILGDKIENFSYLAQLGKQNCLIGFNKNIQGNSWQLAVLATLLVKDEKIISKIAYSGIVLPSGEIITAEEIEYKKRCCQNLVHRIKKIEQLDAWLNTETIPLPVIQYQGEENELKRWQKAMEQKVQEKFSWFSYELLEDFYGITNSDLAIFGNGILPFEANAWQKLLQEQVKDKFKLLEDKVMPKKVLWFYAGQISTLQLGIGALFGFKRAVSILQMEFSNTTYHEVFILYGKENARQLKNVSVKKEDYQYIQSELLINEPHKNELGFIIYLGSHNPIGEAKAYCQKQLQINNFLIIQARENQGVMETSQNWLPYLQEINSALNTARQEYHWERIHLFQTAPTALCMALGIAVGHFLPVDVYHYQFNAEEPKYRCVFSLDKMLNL

[3] = biological target: T1, CalpL (CCaCalpL, SAVED-Lon protease); experiment: cryo-EM structure; remark: listed apart in the source
[4] = biological target: T1, CalpL (CCaCalpL, SAVED-Lon protease); experiment: cryo-EM structure; remark: listed apart in the source

R358E/K361E-CCaCalpL (enzyme)
ring nuclease activity (cA4 cleavage), reduction against wt-CCaCalpL [1]: > 100 fold

AAAA (ssRNA, 3'-phosphate) [A4p]
binding result [2]: binds

AAAA (ssRNA, 2',3'-cyclic phosphate at 3' end) [A4>p]
binding result [3]: binds

AAAA (structured_RNA, cyclic tetra-adenylate, 3'-5' linked ring closed by phosphodiester) [cA4]
binding result [4]: binds
